Reference: publication PMC11303214

Columns and labels:
Test in all cases: SEC; Superdex200 column, PBS buffer pH 7.4, after nickel affinity chromatography
[1] = target: SsA1 (R-1b variant with the V157C-N183C disulfide) (respiratory syncytial virus (RSV) | bacteriophage T4) (UniProt P03420)
[2] = target: SsA2 (R-1b variant with the A55C-L188C disulfide) (respiratory syncytial virus (RSV) | bacteriophage T4) (UniProt P03420)
[3] = target: SsB1 (R-1b variant with the S443C-S466C disulfide) (respiratory syncytial virus (RSV) | bacteriophage T4) (UniProt P03420)

Substance: SsA1 (R-1b variant with the V157C-N183C disulfide) (from UniProt P03420 26-105; P03420 137-513)
- stoichiometry N [1]: 3

Substance: SsA2 (R-1b variant with the A55C-L188C disulfide) (from UniProt P03420 26-105; P03420 137-513)
- stoichiometry N [2]: 3

Substance: SsB1 (R-1b variant with the S443C-S466C disulfide) (from UniProt P03420 26-105; P03420 137-513)
- stoichiometry N [3]: 3
